Assay results taken from article PMC4341974 (Science translational medicine, 2014).
Where two headings read alike, the source gives them in different places.

Columns and labels:
[1] = biological target: integrin αvβ8 on β8-expressing HT1080 cells (wild-type β8) (human (endogenous in HT1080) | human) (UniProt P06756); test: flow cytometry on cells
[2] = biological target: T1, integrin αvβ8 (construct of the affinity and cross-competition measurements, not told) (Homo sapiens, UniProt P06756;P26012); test: flow cytometry on cells
[3] = biological target: T1, integrin αvβ8 (construct of the …)

T1 sequence (P06756 31-1048, chain 1 of 2): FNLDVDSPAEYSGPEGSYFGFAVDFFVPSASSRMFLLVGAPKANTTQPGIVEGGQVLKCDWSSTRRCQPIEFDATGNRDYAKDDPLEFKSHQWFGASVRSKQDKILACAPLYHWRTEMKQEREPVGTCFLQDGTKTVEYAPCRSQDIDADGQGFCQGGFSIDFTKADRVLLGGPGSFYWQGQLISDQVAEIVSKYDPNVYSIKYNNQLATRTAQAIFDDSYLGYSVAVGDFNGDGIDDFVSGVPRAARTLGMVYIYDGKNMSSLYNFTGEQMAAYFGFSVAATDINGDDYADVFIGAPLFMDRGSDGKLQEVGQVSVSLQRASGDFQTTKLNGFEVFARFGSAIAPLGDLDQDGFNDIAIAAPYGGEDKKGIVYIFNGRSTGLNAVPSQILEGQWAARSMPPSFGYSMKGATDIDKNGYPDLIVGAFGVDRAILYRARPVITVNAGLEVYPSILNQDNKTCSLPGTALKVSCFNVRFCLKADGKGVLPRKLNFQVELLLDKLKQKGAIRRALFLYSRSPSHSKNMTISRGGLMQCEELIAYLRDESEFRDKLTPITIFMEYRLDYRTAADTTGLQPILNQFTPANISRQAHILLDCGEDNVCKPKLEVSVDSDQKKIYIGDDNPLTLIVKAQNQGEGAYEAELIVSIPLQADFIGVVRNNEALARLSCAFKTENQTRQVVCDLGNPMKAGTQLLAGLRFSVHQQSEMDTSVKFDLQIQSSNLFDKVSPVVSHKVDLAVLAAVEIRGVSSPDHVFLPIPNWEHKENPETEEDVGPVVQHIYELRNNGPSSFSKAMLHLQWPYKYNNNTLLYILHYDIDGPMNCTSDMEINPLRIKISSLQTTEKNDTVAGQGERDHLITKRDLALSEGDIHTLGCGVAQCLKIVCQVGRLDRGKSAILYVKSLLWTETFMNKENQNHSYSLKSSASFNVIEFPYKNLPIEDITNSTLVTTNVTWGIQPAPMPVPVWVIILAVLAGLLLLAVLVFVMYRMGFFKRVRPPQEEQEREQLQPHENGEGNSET
T1 sequence (P26012 43-769, chain 2 of 2): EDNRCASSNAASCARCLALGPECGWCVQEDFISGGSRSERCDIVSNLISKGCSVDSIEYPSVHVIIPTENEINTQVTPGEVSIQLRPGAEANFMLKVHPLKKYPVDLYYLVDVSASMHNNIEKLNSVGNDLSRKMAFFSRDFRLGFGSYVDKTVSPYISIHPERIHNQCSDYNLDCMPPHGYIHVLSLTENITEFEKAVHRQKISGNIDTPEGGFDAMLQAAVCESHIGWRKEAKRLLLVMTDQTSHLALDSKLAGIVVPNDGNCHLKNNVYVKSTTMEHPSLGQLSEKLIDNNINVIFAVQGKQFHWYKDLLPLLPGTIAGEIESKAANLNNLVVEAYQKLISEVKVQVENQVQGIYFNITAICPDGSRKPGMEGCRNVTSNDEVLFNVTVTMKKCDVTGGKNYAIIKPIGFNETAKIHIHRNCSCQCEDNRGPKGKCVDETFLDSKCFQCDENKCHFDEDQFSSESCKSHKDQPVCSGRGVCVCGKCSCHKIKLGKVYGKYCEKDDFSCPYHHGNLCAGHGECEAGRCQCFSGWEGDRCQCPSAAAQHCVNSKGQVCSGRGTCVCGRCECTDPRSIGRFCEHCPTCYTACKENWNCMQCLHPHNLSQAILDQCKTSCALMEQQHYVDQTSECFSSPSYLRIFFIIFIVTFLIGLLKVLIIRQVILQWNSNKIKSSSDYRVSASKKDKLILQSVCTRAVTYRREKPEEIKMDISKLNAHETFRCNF
integrin αvβ8 on β8-expressing HT1080 cells (wild-type β8) (human (endogenous in HT1080) | human), sequence (P06756 31-1048, chain 1 of 2): as the sequence (P06756 31-1048, chain 1 of 2) above
integrin αvβ8 on β8-expressing HT1080 cells (wild-type β8) (human (endogenous in HT1080) | human), sequence (P26012 43-769, chain 2 of 2, further chain): as the sequence (P26012 43-769, chain 2 of 2) above
latency-associated peptide, sequence (P01137 30-278): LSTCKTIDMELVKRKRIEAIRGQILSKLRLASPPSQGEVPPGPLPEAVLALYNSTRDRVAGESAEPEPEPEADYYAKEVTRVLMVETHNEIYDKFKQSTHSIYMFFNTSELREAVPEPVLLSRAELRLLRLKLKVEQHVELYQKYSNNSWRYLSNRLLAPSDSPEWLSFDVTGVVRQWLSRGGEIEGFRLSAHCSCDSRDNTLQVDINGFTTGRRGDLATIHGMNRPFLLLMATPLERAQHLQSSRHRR

| Kd [2] | Molecule | further results |
| --- | --- | --- |
|  | latency-associated peptide (from UniProt P01137 30-278) (ligand) | percent decrease of B5 binding to β8-expressing HT1080 cells [1]: 29% |
| 118 nM | 37E1 single-chain antibody fragment (scFv) on yeast (scFv, V domains shown) VH: EVQLVESGGGLVQPGGSLNLSCAASGFVFSRYWMSWVRQAPGKGLEWIGEINPDSSTINYTSSLKDKFIISRDNAKNTLYLQMNKVRSEDTALYYCACLITTEDYWGQGTSVTVSS VL: QIVLTQSPSSMYASLGERVTIPCKASQDINSYLSWFQQKPGKSPKTLIYRANRLVDGVPSRFSGSGSGQDYSLTISSLEYEDMGIYYCLQYDEFPYTFGGGTKLEIK |  |
| 15.4 nM | B5 single-chain antibody fragment (scFv) on yeast (scFv, V domains shown) VH: EVQLVESGGGLVQPGGSLNLSCAVSGFVFSRYWMSWVRQAPGKGLEWIGEINPDSSTINYTSSLKDKFIISRDNAKNTLYLQMNKVRSEDTALYYCACLITTEDYWGQGTSVTVSS VL: QIVLTQSPSSMYASLGERVTIPCKASQDINSYLSWFQQKPGKSPKTLIYYANRLVDGVPSRFSGSGSGQDYSLTISSLEYEDMGIYYCLQYDEFPYTFGGGTKLEIK |  |
|  | B5 intact IgG (antibody, V domains shown) VH: EVQLVESGGGLVQPGGSLNLSCAVSGFVFSRYWMSWVRQAPGKGLEWIGEINPDSSTINYTSSLKDKFIISRDNAKNTLYLQMNKVRSEDTALYYCACLITTEDYWGQGTSVTVSS VL: QIVLTQSPSSMYASLGERVTIPCKASQDINSYLSWFQQKPGKSPKTLIYYANRLVDGVPSRFSGSGSGQDYSLTISSLEYEDMGIYYCLQYDEFPYTFGGGTKLEIK | Kd [3]: 0.54 nM |
